Experimental data from paper PMC4838378 (Nucleic Acids Research, 2016).
Like-named read-outs stand apart in the source and are kept apart here.

What was measured:
[1] = biological target: T1, HpDnaB replicative helicase (Helicobacter pylori, UniProt O25916 1-488); assay: pull-down
T1 sequence: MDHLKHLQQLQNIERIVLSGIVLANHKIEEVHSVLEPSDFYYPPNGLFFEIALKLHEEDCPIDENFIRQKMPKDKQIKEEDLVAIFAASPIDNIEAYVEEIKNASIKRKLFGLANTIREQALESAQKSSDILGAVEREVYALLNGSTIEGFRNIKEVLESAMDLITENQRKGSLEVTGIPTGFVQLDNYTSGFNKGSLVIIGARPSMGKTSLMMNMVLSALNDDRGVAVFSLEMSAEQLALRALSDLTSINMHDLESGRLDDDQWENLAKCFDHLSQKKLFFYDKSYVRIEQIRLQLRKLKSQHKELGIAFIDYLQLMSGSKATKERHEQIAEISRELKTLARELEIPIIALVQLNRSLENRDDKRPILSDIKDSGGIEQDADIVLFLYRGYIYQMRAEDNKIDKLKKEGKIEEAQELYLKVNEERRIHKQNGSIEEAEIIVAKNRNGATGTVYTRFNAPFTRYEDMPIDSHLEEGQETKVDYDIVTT

[2] = biological target: T2, HpDnaB replicative helicase;Hp0897 (Helicobacter pylori;Helicobacter pylori …, UniProt O25916;O25557 1-488;1-208, |); assay: EMSA
T2 sequence 1: T1 sequence
T2 sequence 2: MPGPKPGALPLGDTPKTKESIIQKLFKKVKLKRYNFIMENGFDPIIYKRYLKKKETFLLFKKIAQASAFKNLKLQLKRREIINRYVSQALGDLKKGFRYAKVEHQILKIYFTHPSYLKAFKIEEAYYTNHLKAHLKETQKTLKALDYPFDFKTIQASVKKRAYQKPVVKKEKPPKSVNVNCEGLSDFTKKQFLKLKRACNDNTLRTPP

[3] = biological target: T3, Hp0897 (Helicobacter pylori 26695, UniProt O25557 1-208); assay: EMSA
T3 sequence: T2 sequence 2

[4] = biological target: T2, HpDnaB replicative helicase;Hp0897; assay: EMSA; remark: listed apart in the source
[5] = biological target: the molecule itself; assay: cross-linking

B1: biotinylated 70-nt ssDNA-1 (ssDNA)
DNA: CTGCCACACACCACCAAAGCTAACTGACAGCAGAATCCAGATGGATCATTTAAAGCATTTGCAACAATTG
modifications: 5' biotin
[1]
  binding result: binds

B2: 70-nt forked DNA (ssDNA-1/ssDNA-2) (dsDNA)
DNA 1: B1 DNA
DNA 2: CAATTGTTGCAAATGCTTTAAATGATCCATGACCTAAGACGACAGTCAATCGAACCACCACACACCGTC
[2]
  binding result: binds

B3: 70NZ ssDNA-1 (ssDNA)
DNA: B1 DNA
[3]
  binding result: binds
[4]
  binding result: binds

B4: His6-Hp0897 (natural protein, Helicobacter pylori strain 26695, UniProt O25557 1-208, looked up)
chain: T2 sequence 2
[5]
  stoichiometry N: 2
